Source: paper PMC3442271

Experiments:
[1] = biological target: T1, Endonuclease III (Endo III);XerC;XerD (Escherichia coli;Vibrio cholerae;Vibrio …, UniProt P0AB83;Q9KVL4;Q9KPE9 1-211;1-311;1-302, ||); assay: footprinting
T1 sequence 1: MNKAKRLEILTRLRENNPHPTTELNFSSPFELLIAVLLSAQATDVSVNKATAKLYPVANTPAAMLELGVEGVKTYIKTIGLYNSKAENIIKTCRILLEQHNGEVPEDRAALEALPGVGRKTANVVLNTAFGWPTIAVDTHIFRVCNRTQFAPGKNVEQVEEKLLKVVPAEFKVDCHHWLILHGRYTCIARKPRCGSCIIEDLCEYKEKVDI
T1 sequence 2: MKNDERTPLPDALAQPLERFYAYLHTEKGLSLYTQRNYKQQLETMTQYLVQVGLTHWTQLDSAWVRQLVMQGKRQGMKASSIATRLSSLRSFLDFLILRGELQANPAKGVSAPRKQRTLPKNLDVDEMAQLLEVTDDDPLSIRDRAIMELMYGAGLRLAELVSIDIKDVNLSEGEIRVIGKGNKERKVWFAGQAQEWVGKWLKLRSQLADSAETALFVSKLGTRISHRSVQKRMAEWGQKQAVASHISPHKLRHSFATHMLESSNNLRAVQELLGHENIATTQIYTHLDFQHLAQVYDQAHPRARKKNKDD
T1 sequence 3: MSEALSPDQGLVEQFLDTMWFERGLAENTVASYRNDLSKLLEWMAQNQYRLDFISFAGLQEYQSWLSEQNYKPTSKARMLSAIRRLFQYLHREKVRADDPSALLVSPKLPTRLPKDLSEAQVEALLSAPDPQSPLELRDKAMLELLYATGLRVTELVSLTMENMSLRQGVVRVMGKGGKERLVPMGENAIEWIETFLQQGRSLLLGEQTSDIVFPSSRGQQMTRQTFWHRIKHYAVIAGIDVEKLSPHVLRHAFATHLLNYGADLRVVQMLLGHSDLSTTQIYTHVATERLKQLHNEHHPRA

[2] = biological target: T2, XerC;XerD (Vibrio cholerae;Vibrio cholerae, UniProt Q9KVL4;Q9KPE9 1-311;1-302, |); assay: footprinting
T2 sequence 1: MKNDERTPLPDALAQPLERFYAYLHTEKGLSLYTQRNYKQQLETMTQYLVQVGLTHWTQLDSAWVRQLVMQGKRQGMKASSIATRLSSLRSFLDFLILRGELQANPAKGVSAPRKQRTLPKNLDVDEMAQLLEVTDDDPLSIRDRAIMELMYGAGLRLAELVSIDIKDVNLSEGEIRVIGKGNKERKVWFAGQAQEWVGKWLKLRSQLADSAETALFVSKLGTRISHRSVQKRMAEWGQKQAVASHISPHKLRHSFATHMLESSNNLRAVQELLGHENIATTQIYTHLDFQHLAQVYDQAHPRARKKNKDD
T2 sequence 2: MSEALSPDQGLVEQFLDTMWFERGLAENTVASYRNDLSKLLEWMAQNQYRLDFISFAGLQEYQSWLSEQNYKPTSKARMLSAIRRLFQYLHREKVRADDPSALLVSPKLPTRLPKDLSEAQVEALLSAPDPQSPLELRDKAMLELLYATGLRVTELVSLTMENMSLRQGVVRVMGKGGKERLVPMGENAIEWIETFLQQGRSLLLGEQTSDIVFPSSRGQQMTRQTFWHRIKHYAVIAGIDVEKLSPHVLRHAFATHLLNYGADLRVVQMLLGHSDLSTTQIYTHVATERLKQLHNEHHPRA

[3] = biological target: T3, Endonuclease III (Endo III) (Escherichia coli, UniProt P0AB83 1-211); assay: EMSA
T3 sequence: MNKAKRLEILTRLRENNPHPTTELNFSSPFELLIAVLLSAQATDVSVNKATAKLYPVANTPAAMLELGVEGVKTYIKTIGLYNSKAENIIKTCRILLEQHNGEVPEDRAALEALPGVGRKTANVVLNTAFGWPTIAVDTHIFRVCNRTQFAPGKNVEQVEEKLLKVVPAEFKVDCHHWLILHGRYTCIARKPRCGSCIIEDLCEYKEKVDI

[4] = biological target: T3, Endonuclease III (Endo III); assay: competition

B1: attP(+)/dif1 pseudo-HJ (structured_DNA)
DNA 1: GATCCGTGATCACGCTGAACGCGTTTTAGCAGTGCGCATTATGTGGCGCGGCATTATGTTGAGGGGCCTAACGCCTAAAGCGGCCGCCTA
DNA 2: ATCGTAGGCGGCCGCTTTAGGCGTTAGGCCCCGTAACATAATGGCGTATAATACGCATTCGACCGTTGCCGGATCCG
DNA 3: CGATCGGATCCGGCAACGGTCGAGTGCGTATTATGTATGTTATGTTAAATGACATCCTGAGATCTCGA
DNA 4: TCGATCGAGATCTCAGGATGTCATTTAACATAACATACATAATGCGCACTGCTAAAACGCGTTCAGCGTGATCACG
binding result [1]: binds | binding result [2]: binds | binding result [3]: binds

B2: dif1/dif1 HJ (structured_DNA)
DNA 1: GATCCGTGATCACGCTGAACGCGTTTTAGCAGTGCGCATTATGTATGTTATGTTAAATGGCCTAACGCCTAAAGCGGCCGCCTA
DNA 2: ATCGTAGGCGGCCGCTTTAGGCGTTAGGCCATTTAACATAACATACATAATGCGCACTCGACCGTTGCCGGATCCG
DNA 3: CGATCGGATCCGGCAACGGTCGAGTGCGCATTATGTATGTTATGTTAAATGACATCCTGAGATCTCGA
DNA 4: TCGATCGAGATCTCAGGATGTCATTTAACATAACATACATAATGCGCACTGCTAAAACGCGTTCAGCGTGATCACG
binding result [4]: binds
